Test results: patent publication US20140298544A1, “Engineered PEP carboxylase variants for improved plant productivity” (PIONEER HI BRED INTERNATIONAL INC, priority 2011, published 2014)
Residue numbers refer to the chain shown, from its start. Read-outs that look alike come from different tables or passages of the source.

Tested on: maize C4 PEPC
Assay: Kinetic and regulatory properties of PEPC variants (expressed in E. coli)
Type: biochemical
Conditions: for PEP, no activators kcat/S0.5 / PEP, no activators kcat/S0.5 % wt / PEP, with activators kcat/S0.5 / kcat/S0.5 Fold incr. / PEP, with activators kcat/S0.5 % wt: PEP substrate; for PEP, no activators kcat/S0.5 % wt / PEP, with activators kcat/S0.5 % wt / Glc-6-P A0.5 % wt / Glycine A0.5 % wt / HCO3 kcat/S0.5 % wt / Malate Ki % wt / Ki for malate, in words / Vmax, in words / activation by glucose-6-phosphate, in words / activation by glycine, in words: relative to wild type; for kcat/S0.5 Fold incr.: with activators vs no activators; for HCO3 S0.5 / HCO3 kcat/S0.5 / HCO3 kcat/S0.5 % wt: bicarbonate substrate; for Ki / Malate Ki % wt: inhibitor malate
From the text: Libraries of modified PEPC polynucleotides were generated using recursive sequence recombination methods (Stemmer, Proc. Natl. Acad. Sci USA 91:10747-10751; Ness, et. al., Nature Biotechnology 20:1251-1255), also known as gene shuffling methods. These libraries incorporated diversity from related PEPC enzymes and also incorporated other designed and random changes. The starting polynucleotide sequence in which the diversity was incorporated was the maize C4 PEPC as shown in SEQ ID NO: 25. Each PEPC variant was expressed in E. coli as a thioredoxin fusion using the pET 32 expression vector (Novagen) with the E. coli expression strain Rosetta gami 2 BL21 DE3 pLYS S. Cultures expressing the variants were grown in 96-well culture blocks, lysed, and then PEPC activity and PEPC protein abundance were determined. The variants with high specific activity were subjected to further rounds of shuffling, for a total of 3 rounds. Examples of nucleotide and amino acid sequences of PEPC variants obtained with this method are SEQ ID NO: 4 to 24.
Detailed kinetic studies of PEPC variants were done in accordance with methods known in the art. See, for example, Tovar-Mendez et al. (2000) Plant Physiol. 123: 149-160; Tover-Mendez et al. (1998) Biochem. J. 332: 633-642.
PEPC variants had several improved properties in comparison with wild type PEPC, including greater affinity (lower S0.5 values) with respect to the bicarbonate substrate, greater Kcat/S0.5 values with the bicarbonate or PEP substrates, greater activation (lower A0.5 values) with […] or glycine as activators and greater Ki values with malate as inhibitor.

[1] = activator Glc-6-P, read-out: Glc-6-P A0.5
[2] = activator glycine, read-out: Glycine A0.5

B1: 3F30-F12: maize C4 PEPC variant, 7 amino acid substitutions, SEQ ID NO: 11 (protein)
chain: MASTKAPGPGEKHHSIDAQLRQLVPGKVSEDDKLIEYDALLVDRFLNILQDLHGPSLREFVQECYEVSADYEGKGDTTKLGELGAKLTGLAPADAILVASSILHMLNLANLAEEAQIAHRRRNSKLKKGGFADEGSATTESDIEETLKRLVSEVGKSPEEVFEALKNQTVDLVFTAHPTQSARRSLLQKNAGIRNCLTQLNAKDITDGDKQELDEALQREIQAAFRTDEIRRAQPTPQDEMRYGMSYIHETVWKGVPKFLRRVDTALKNIGINERLPYNVSLIRFSSWMGGDRDGNPRVTPEVTRDVCLLARMMAANLYIDQIEELMFELSMWRCNDELRVRAEELHSSSGSKVTKYYIEFWKQIPPNEPYRVILGHVRDKLYNTRERARHLLASGVSEISAESSFTSIEEFLEPLELCYKSLCDCGDKAIADGSLLDLLRQVFTFGLSLVKLDIRQESERHTDVIDAITTHLGIGSYREWSEDKRQEWLLSELRGKRPLLPPDLPQTDEIADVIGAFHVLAELPPDSFGPYIISMATAPSDVLAVELLQRECGIKQPLPVVPLFERLADLQSAPASVERLFSVDWYMDRIKGKQQVMVGYSDSGKDAGRLSAAWQLYKAQEEMAQVAKRYGVKLTLFHGRGGTVGRGGGPTHLAILSQPPDTINGSIRVTVQGEVIEFCFGEEHLCFQTLQRFTAATLEHGMHPPVSPKPEWRKLMDEMAVVATEEYRSVVVKEPRFVEYFRSATPETEYGRMNIGSRPAKRRPGGGITTLRAIPWIFSWTQTRFHLPVWLGVGAAFKFAIDKDVRNFQVLKEMYNEWPFFRVTLDLLEMIFAKGDPGIAGLYDELLVAEELKPFGKQLRDKYVETQQLLLQIAGHKDILEGDPFLKQGLVLRNPYITTLNVFQAYTLKRIRDPNFKVTPQPPLSKEFADENKPAGLVKLNPASEYPPGLEDTLILTMKGIAAGMQNTG
modifications: shuffled variant
In the case of B1, the “PEP, no activators kcat/S0.5” value is reported as 89800 M⁻¹ s⁻¹, the “PEP, no activators kcat/S0.5 % wt” value is reported as 263 % wt and the “PEP, with activators kcat/S0.5” value is reported as 4.496e+06 M⁻¹ s⁻¹. The “kcat/S0.5 Fold incr.” value was 50.1 Fold incr, the “PEP, with activators kcat/S0.5 % wt” value was 184 % wt and the “Glc-6-P Vmax Fold incr” value (activator Glc-6-P) was 12.6 Fold incr. The EC50 [1] was 5110 µM, the “Glc-6-P A0.5 % wt” value (activator Glc-6-P) was 75 % wt and the “Glycine Vmax Fold incr” value (activator glycine) was 11.3 Fold incr. The EC50 [2] was 700 µM, the “Glycine A0.5 % wt” value (activator glycine) was 19 % wt and the “HCO3 S0.5” value was 0.0248 mM. The “HCO3 kcat/S0.5” value was 3.481e+06 M⁻¹ s⁻¹, the “HCO3 kcat/S0.5 % wt” value was 164 % wt and the Ki was 3300 µM. For the same molecule, the “Malate Ki % wt” value was 825 % wt, the “Ki for malate, in words” value was “increased Ki” and the “Vmax, in words” value was “better Vmax”. The “activation by glucose-6-phosphate, in words” value was “increased activation” and the “activation by glycine, in words” value was “increased activation”.

B2: 3C2-H4: maize C4 PEPC variant, 6 amino acid substitutions, SEQ ID NO: 12 (protein)
chain: B1 chain with A115V, H119R, G208D, S404A, R495K, I555V, K556R, R807K, I832V
modifications: shuffled variant
For B2, the “PEP, no activators kcat/S0.5” value was 64100 M⁻¹ s⁻¹, the “PEP, no activators kcat/S0.5 % wt” value was 188 % wt and the “PEP, with activators kcat/S0.5” value was 3.919e+06 M⁻¹ s⁻¹. The “kcat/S0.5 Fold incr.” value was 61.2 Fold incr, the “PEP, with activators kcat/S0.5 % wt” value was 160 % wt and the “Glc-6-P Vmax Fold incr” value (activator Glc-6-P) was 7.6 Fold incr. For the same molecule, the EC50 [1] was 3020 µM, the “Glc-6-P A0.5 % wt” value (activator Glc-6-P) was 44 % wt and the “Glycine Vmax Fold incr” value (activator glycine) was 10.3 Fold incr. For the same molecule, the EC50 [2] was 560 µM, the “Glycine A0.5 % wt” value (activator glycine) was 16 % wt and the “HCO3 S0.5” value was 0.026 mM. For the same molecule, the “HCO3 kcat/S0.5” value was 3.581e+06 M⁻¹ s⁻¹, the “HCO3 kcat/S0.5 % wt” value was 169 % wt and the Ki was 1000 µM. For the same molecule, the “Malate Ki % wt” value was 250 % wt, the “Ki for malate, in words” value was “increased Ki” and the “Vmax, in words” value was “better Vmax”. The “activation by glucose-6-phosphate, in words” value was “increased activation” and the “activation by glycine, in words” value was “increased activation”.

B3: 3C9-C9: maize C4 PEPC variant, 8 amino acid substitutions, SEQ ID NO: 22 (protein)
chain: B1 chain with A115V, H119R, G208D, D321N, S404A, R495K, I832V
modifications: shuffled variant
For B3, the “PEP, no activators kcat/S0.5” value was 79600 M⁻¹ s⁻¹, the “PEP, no activators kcat/S0.5 % wt” value was 234 % wt and the “PEP, with activators kcat/S0.5” value was 3.831e+06 M⁻¹ s⁻¹. For the same molecule, the “kcat/S0.5 Fold incr.” value was 48.1 Fold incr, the “PEP, with activators kcat/S0.5 % wt” value was 157 % wt and the “Glc-6-P Vmax Fold incr” value (activator Glc-6-P) was 11.4 Fold incr. For the same molecule, the EC50 [1] was 3850 µM, the “Glc-6-P A0.5 % wt” value (activator Glc-6-P) was 57 % wt and the “Glycine Vmax Fold incr” value (activator glycine) was 11.5 Fold incr. The EC50 [2] was 760 µM, the “Glycine A0.5 % wt” value (activator glycine) was 21 % wt and the “HCO3 S0.5” value was 0.021 mM. The “HCO3 kcat/S0.5” value was 3.606e+06 M⁻¹ s⁻¹, the “HCO3 kcat/S0.5 % wt” value was 170 % wt and the Ki was 2000 µM. For the same molecule, the “Malate Ki % wt” value was 500 % wt.
